Results on four substances are retold here after article PMC9896449.

As a reminder, the pKd is the Kd on a negative log10 scale, so that one unit is a factor of ten. Low values mean a large Kd, high ones a small Kd. What is called koff is a measure of how fast the partners let go of each other. A lower koff goes with slow dissociation. A word on the kon: it is a measure of how fast the partners come together. A high value points to faster complex formation.

pKd: −log10 of the molar value.

The target in assay [1] is BiShAb0201 (ShAb02 VNAR - (GGGGS)5 - ShAb01 VNAR - human IgG1 Fc) (nurse shark (Ginglymostoma cirratum)). Briefly: BLI. A general note: In BLI a coated tip is dipped into the sample, and binding shifts an interference pattern.
The target of assay [2] is ShAb01H02K (knob-in-hole heterodimer of ShAb01-Fc and ShAb02-Fc) (nurse shark (Ginglymostoma cirratum)). Briefly: BLI.

With “SARS-CoV-2 RBD B.1.1.529, Omicron BA.1 (from UniProt P0DTC2 331-527) (domain or fragment)”, in assay [1], the pKd was 7.82, the koff was found to be 0.00154 s⁻¹ and the kon worked out at 102000 M⁻¹ s⁻¹. Besides, in assay [2], the pKd was 7.61, the koff is 0.00175 s⁻¹ and the kon is 71300 M⁻¹ s⁻¹.
On to “SARS-CoV-2 RBD B.1.1.529.2, Omicron BA.2 (from UniProt P0DTC2 331-527) (domain or fragment)”, for which, in assay [1], the pKd is 7.48, the dissociation rate constant (koff) turned out to be 0.000749 s⁻¹ and the kon is 22600 M⁻¹ s⁻¹. Also, in assay [2], the negative logarithm of the Kd (pKd) is 7.62, the off-rate constant (koff) worked out at 0.00186 s⁻¹ and the kon was 77000 M⁻¹ s⁻¹.
In assay [1], “SARS-CoV-2 RBD B.1.1.529.2.12.1, Omicron BA.2.12.1 (from UniProt P0DTC2 331-527) (domain or fragment)” showed a pKd of 7.33, a koff of 0.000922 s⁻¹ and a kon of 19700 M⁻¹ s⁻¹. In assay [2], this substance had a pKd of 7.76, a koff of 0.00171 s⁻¹ and an association rate constant (kon) of 98500 M⁻¹ s⁻¹.
In assay [1], “SARS-CoV-2 RBD Omicron BA.4/5 (from UniProt P0DTC2 331-527) (domain or fragment)” showed a pKd of 7.83, a koff of 0.000767 s⁻¹ and a kon of 51500 M⁻¹ s⁻¹. In assay [2], this substance gave a pKd of 8.25, an off-rate (koff) of 0.000692 s⁻¹ and a kon of 123000 M⁻¹ s⁻¹.
